Source: article PMC4434323

These sequences were tested against T1, fkh-9 (K03C7.2) (Caenorhabditis elegans) (UniProt Q21187).
T1 sequence: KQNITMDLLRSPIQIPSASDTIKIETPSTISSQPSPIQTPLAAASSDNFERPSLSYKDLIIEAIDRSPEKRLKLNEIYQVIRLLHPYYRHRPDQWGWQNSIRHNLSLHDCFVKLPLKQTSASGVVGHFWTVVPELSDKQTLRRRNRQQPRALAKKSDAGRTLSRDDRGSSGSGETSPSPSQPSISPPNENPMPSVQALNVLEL

Going from “AAAAACAA (double strand) [8-mer AAAAACAA]” to “TCATAACA (double strand) [8-mer TCATAACA]”, the binding signal (PBM E-score (-0.5 to 0.5)) falls from 0.49 to 0.485.

Compared with “AAAACAAC (double strand) [8-mer AAAACAAC]”, “AATAACAA (double strand) [8-mer AATAACAA]” is higher in binding signal (PBM E-score (-0.5 to 0.5)): 0.491 for the first, 0.494 for the second.

Compared with “GAAAACAA (double strand) [8-mer GAAAACAA]”, “AACAACAA (double strand) [8-mer AACAACAA]” is lower in binding signal (PBM E-score (-0.5 to 0.5)): 0.489 for the first, 0.487 for the second.

Going from “TCAAAACA (double strand) [8-mer TCAAAACA]” to “CATAACAA (double strand) [8-mer CATAACAA]”, the binding signal (PBM E-score (-0.5 to 0.5)) falls from 0.491 to 0.486.

Compared with “CAATAACA (double strand) [8-mer CAATAACA]”, “TAAAAACA (double strand) [8-mer TAAAAACA]” is lower in binding signal (PBM E-score (-0.5 to 0.5)): 0.488 for the first, 0.485 for the second.

“CAAAACAA (double strand) [8-mer CAAAACAA]” gave a binding signal (PBM E-score (-0.5 to 0.5)) of 0.494.

What follows are sequences tested against dmd-4 (C27C12.6) (Caenorhabditis elegans) (UniProt Q18248).
dmd-4 (C27C12.6) (Caenorhabditis elegans), sequence (Q18248 1-114): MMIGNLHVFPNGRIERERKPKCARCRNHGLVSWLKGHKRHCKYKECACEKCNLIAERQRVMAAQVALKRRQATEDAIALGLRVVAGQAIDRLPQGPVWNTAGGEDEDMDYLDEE

First: TGTAACAA (double strand) [8-mer TGTAACAA]
Second: TGTATCAA (double strand) [8-mer TGTATCAA]
The binding signal (PBM E-score (-0.5 to 0.5)) of the first is lower: 0.483 for the first, 0.496 for the second.

Compared with “ATTGTATC (double strand) [8-mer ATTGTATC]”, “AATGTATC (double strand) [8-mer AATGTATC]” is higher in binding signal (PBM E-score (-0.5 to 0.5)): 0.491 for the first, 0.494 for the second.

For “ATGTATCA (double strand) [8-mer ATGTATCA]”, the binding signal (PBM E-score (-0.5 to 0.5)) was 0.493.

What follows are sequences tested against T2, dmd-6 (F13G11.1) (Caenorhabditis elegans) (UniProt O62159).
T2 sequence: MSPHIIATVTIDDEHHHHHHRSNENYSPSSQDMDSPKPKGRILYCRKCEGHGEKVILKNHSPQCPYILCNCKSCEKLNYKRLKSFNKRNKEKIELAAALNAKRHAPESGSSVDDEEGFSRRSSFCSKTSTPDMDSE

Going from “AAAAGTTA (double strand) [8-mer AAAAGTTA]” to “AAAATTTA (double strand) [8-mer AAAATTTA]”, the binding signal (PBM E-score (-0.5 to 0.5)) falls from 0.486 to 0.471.

Going from “AAATTTTA (double strand) [8-mer AAATTTTA]” to “AAAAAGTT (double strand) [8-mer AAAAAGTT]”, the binding signal (PBM E-score (-0.5 to 0.5)) rises from 0.477 to 0.484.

Compared with “AAATATTT (double strand) [8-mer AAATATTT]”, “AAATTTAT (double strand) [8-mer AAATTTAT]” is lower in binding signal (PBM E-score (-0.5 to 0.5)): 0.482 for the first, 0.479 for the second.

“AAATGTTA (double strand) [8-mer AAATGTTA]” gave a binding signal (PBM E-score (-0.5 to 0.5)) of 0.475.

Each sequence was assayed on T3, C34D1.1 (C34D1.1) (Caenorhabditis elegans).
T3 sequence: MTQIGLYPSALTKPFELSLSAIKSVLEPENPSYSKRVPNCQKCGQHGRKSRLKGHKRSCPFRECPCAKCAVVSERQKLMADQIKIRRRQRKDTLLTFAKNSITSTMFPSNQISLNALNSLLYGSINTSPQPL

Compared with “TGTTGCAA (double strand) [8-mer TGTTGCAA]”, “GAAACATA (double strand) [8-mer GAAACATA]” is higher in binding signal (PBM E-score (-0.5 to 0.5)): 0.469 for the first, 0.488 for the second.

First: ATGAAACA (double strand) [8-mer ATGAAACA]
Second: TGAAACAA (double strand) [8-mer TGAAACAA]
The binding signal (PBM E-score (-0.5 to 0.5)) of the first is higher: 0.486 for the first, 0.485 for the second.

Going from “TGTTTCAA (double strand) [8-mer TGTTTCAA]” to “ATAGTTTC (double strand) [8-mer ATAGTTTC]”, the binding signal (PBM E-score (-0.5 to 0.5)) falls from 0.485 to 0.47.

In the case of “CATGTTTC (double strand) [8-mer CATGTTTC]”, the binding signal (PBM E-score (-0.5 to 0.5)) is reported as 0.469.

The sequences below were run against T4, mab-3 (Y53C12B.5) (Caenorhabditis elegans) (UniProt O18214).
T4 sequence: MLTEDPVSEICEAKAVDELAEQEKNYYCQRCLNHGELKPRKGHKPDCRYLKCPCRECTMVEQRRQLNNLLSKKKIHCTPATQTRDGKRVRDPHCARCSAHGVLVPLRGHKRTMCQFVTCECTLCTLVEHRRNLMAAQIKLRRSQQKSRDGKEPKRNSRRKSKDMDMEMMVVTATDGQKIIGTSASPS

Going from “GATGTTGC (double strand) [8-mer GATGTTGC]” to “TGTTGCAA (double strand) [8-mer TGTTGCAA]”, the binding signal (PBM E-score (-0.5 to 0.5)) rises from 0.495 to 0.497.

First: ACGCAACA (double strand) [8-mer ACGCAACA]
Second: TCGCAACA (double strand) [8-mer TCGCAACA]
The binding signal (PBM E-score (-0.5 to 0.5)) of the first is lower: 0.484 for the first, 0.499 for the second.

First: CCGCAACA (double strand) [8-mer CCGCAACA]
Second: GCAACATA (double strand) [8-mer GCAACATA]
The binding signal (PBM E-score (-0.5 to 0.5)) of the first is lower: 0.482 for the first, 0.493 for the second.

Going from “ATGCAACA (double strand) [8-mer ATGCAACA]” to “ATTGTTGC (double strand) [8-mer ATTGTTGC]”, the binding signal (PBM E-score (-0.5 to 0.5)) rises from 0.482 to 0.486.

Compared with “GTTGCAAC (double strand) [8-mer GTTGCAAC]”, “ATGTTGCC (double strand) [8-mer ATGTTGCC]” is lower in binding signal (PBM E-score (-0.5 to 0.5)): 0.479 for the first, 0.477 for the second.

First: CGCAACAA (double strand) [8-mer CGCAACAA]
Second: TGGCAACA (double strand) [8-mer TGGCAACA]
The binding signal (PBM E-score (-0.5 to 0.5)) of the first is higher: 0.487 for the first, 0.481 for the second.

For “ATGTTGCG (double strand) [8-mer ATGTTGCG]”, the binding signal (PBM E-score (-0.5 to 0.5)) was 0.499.

The sequences below were run against T5, T22H9.4 (T22H9.4) (Caenorhabditis elegans) (UniProt Q9TXN8).
T5 sequence: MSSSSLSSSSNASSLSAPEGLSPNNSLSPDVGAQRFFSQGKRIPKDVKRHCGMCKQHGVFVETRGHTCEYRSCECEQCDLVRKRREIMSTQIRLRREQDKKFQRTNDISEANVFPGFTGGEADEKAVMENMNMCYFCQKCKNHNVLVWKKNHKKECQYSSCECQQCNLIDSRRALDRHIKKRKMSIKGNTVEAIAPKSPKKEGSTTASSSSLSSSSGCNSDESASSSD

Compared with “TGTTACAA (double strand) [8-mer TGTTACAA]”, “TGTTAAAA (double strand) [8-mer TGTTAAAA]” is higher in binding signal (PBM E-score (-0.5 to 0.5)): 0.488 for the first, 0.496 for the second.

“TGTTGCAA (double strand) [8-mer TGTTGCAA]” and “TGTTGAAA (double strand) [8-mer TGTTGAAA]” are the same in binding signal (PBM E-score (-0.5 to 0.5)): 0.499 for the first, 0.499 for the second.

Going from “ATTTTAAC (double strand) [8-mer ATTTTAAC]” to “TGTAGAAA (double strand) [8-mer TGTAGAAA]”, the binding signal (PBM E-score (-0.5 to 0.5)) falls from 0.491 to 0.489.

Going from “GTTAAAAA (double strand) [8-mer GTTAAAAA]” to “TGTCGAAA (double strand) [8-mer TGTCGAAA]”, the binding signal (PBM E-score (-0.5 to 0.5)) rises from 0.494 to 0.495.

“GTTGCAAA (double strand) [8-mer GTTGCAAA]” and “ATTGCAAC (double strand) [8-mer ATTGCAAC]” are the same in binding signal (PBM E-score (-0.5 to 0.5)): 0.493 for the first, 0.493 for the second.

First: ATTCAACA (double strand) [8-mer ATTCAACA]
Second: CGTTGCAA (double strand) [8-mer CGTTGCAA]
The binding signal (PBM E-score (-0.5 to 0.5)) of the first is higher: 0.49 for the first, 0.488 for the second.

First: GTTGCAAC (double strand) [8-mer GTTGCAAC]
Second: GTTGAAAA (double strand) [8-mer GTTGAAAA]
The binding signal (PBM E-score (-0.5 to 0.5)) of the first is lower: 0.489 for the first, 0.495 for the second.

“ATTTCAAC (double strand) [8-mer ATTTCAAC]” gave a binding signal (PBM E-score (-0.5 to 0.5)) of 0.497.

These sequences were tested against T6, efl-2 (Y48C3A.17) (Caenorhabditis elegans) (UniProt A5HWA8).
T6 sequence: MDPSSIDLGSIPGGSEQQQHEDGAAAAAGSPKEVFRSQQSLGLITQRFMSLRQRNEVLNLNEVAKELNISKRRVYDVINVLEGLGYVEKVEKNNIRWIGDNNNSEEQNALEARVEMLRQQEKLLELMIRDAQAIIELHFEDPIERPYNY

First: GCGCGCAC (double strand) [8-mer GCGCGCAC]
Second: ACGCGCGC (double strand) [8-mer ACGCGCGC]
The binding signal (PBM E-score (-0.5 to 0.5)) of the first is lower: 0.487 for the first, 0.49 for the second.

Going from “CGCGCGCC (double strand) [8-mer CGCGCGCC]” to “CGCGCGCA (double strand) [8-mer CGCGCGCA]”, the binding signal (PBM E-score (-0.5 to 0.5)) rises from 0.488 to 0.491.

First: GAGCGCGC (double strand) [8-mer GAGCGCGC]
Second: GCGCGCGA (double strand) [8-mer GCGCGCGA]
The binding signal (PBM E-score (-0.5 to 0.5)) of the first is higher: 0.486 for the first, 0.485 for the second.

First: AGCGCGCC (double strand) [8-mer AGCGCGCC]
Second: GCGCGCCA (double strand) [8-mer GCGCGCCA]
The binding signal (PBM E-score (-0.5 to 0.5)) of the first is lower: 0.488 for the first, 0.49 for the second.

Compared with “ATGCGCGC (double strand) [8-mer ATGCGCGC]”, “ACCCGCGC (double strand) [8-mer ACCCGCGC]” is higher in binding signal (PBM E-score (-0.5 to 0.5)): 0.485 for the first, 0.486 for the second.

In the case of “AGGCGCGC (double strand) [8-mer AGGCGCGC]”, the binding signal (PBM E-score (-0.5 to 0.5)) is reported as 0.487.

The sequences below were run against dmd-5 (F10C1.5) (Caenorhabditis elegans) (UniProt Q19291).
dmd-5 (F10C1.5) (Caenorhabditis elegans), sequence (Q19291 1-125): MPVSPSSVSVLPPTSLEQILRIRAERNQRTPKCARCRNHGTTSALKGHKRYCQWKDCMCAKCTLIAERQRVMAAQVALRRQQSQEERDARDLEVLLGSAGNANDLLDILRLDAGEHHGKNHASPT

“TGTTACAA (double strand) [8-mer TGTTACAA]” and “TGTAACAA (double strand) [8-mer TGTAACAA]” are the same in binding signal (PBM E-score (-0.5 to 0.5)): 0.484 for the first, 0.484 for the second.

Compared with “ACTGTTGC (double strand) [8-mer ACTGTTGC]”, “ACAGTAAC (double strand) [8-mer ACAGTAAC]” is lower in binding signal (PBM E-score (-0.5 to 0.5)): 0.488 for the first, 0.482 for the second.

First: AATTGTTA (double strand) [8-mer AATTGTTA]
Second: ATTGTTAC (double strand) [8-mer ATTGTTAC]
The binding signal (PBM E-score (-0.5 to 0.5)) of the first is higher: 0.478 for the first, 0.476 for the second.

Compared with “ATTGTAAC (double strand) [8-mer ATTGTAAC]”, “ACAGTTGC (double strand) [8-mer ACAGTTGC]” is higher in binding signal (PBM E-score (-0.5 to 0.5)): 0.481 for the first, 0.489 for the second.

“ACTGTAAC (double strand) [8-mer ACTGTAAC]” and “TGTATCAA (double strand) [8-mer TGTATCAA]” are the same in binding signal (PBM E-score (-0.5 to 0.5)): 0.49 for the first, 0.49 for the second.

Going from “ACTGTATC (double strand) [8-mer ACTGTATC]” to “ATTGTATC (double strand) [8-mer ATTGTATC]”, the binding signal (PBM E-score (-0.5 to 0.5)) rises from 0.484 to 0.486.

Compared with “ATGTTACA (double strand) [8-mer ATGTTACA]”, “AATGTATC (double strand) [8-mer AATGTATC]” is higher in binding signal (PBM E-score (-0.5 to 0.5)): 0.475 for the first, 0.485 for the second.

Sequence “ATGTATCA (double strand) [8-mer ATGTATCA]” has a binding signal (PBM E-score (-0.5 to 0.5)) of 0.486.
